{"source": "paper PMC5143422", "about": "(Cell Research, 2016)", "molecules": {"B1": {"name": "FabZ (β-hydroxyacyl-ACP dehydratase) from Helicobacter pylori (enzyme)", "chain": "MEQSHQNLQSQFFIEHILQILPHRYPMLLVDRIIELQANKKIVAYKNITFNEDVFNGHFPNKPIFPGVLIVEGMAQTGGFLAFTSLWGFDPEIAKTKIVYFMTIDKVKFRIPVTPGDRLEYHLEVLKHKGMIWQVGGTAQVDGKVVAEAELKAMIAER", "modifications": "fluorescence dye NT-647 (amine-reaction) in the MST assay only"}}, "key": {"[1]": {"biological_target": "FabZ (β-hydroxyacyl-ACP dehydratase) from Helicobacter pylori (Helicobacter pylori) (UniProt O25928)", "assay": "MST"}, "[2]": {"biological_target": "FabZ (β-hydroxyacyl-ACP dehydratase) from Helicobacter pylori (Helicobacter pylori) (UniProt O25928)", "assay": "SEC-MALS"}, "SEC-MALS": {"biological_target": "the molecule itself", "assay": "SEC-MALS"}}}
{"molecule": "holo-acyl carrier protein (holo-ACP) from Helicobacter pylori (natural protein)", "values": [{"measurement": "KD, first phase of the triphasic binding curve", "setting": "[1]", "value": 0.354, "unit": "µM"}, {"measurement": "KD, second phase of the triphasic binding curve", "setting": "[1]", "value": 16.2, "unit": "µM"}, {"measurement": "KD, third phase of the triphasic binding curve", "setting": "[1]", "value": 297, "unit": "µM"}, {"measurement": "stoichiometry N (holo-ACP per FabZ hexamer)", "setting": "[2]", "value": 3}]}
{"molecule": "B1", "values": [{"measurement": "stoichiometry N", "setting": "SEC-MALS", "value": 6}]}
